Among the data in the supplement of paper PMC10567573 are protein stability index values, retold here.

B1: SASS6 (parent)
chain: QKELQDVGQSLRIKEQEVCKLQEQ
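Further: lentivirally expressed fusions sorted by FACS into six bins by GFP to DsRed ratio, PSI derived from sequencing read proportions per bin multiplied by bin number.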

Variants of B1 are the subject of the data set. The data set can be described thus: protein stability index of a GFP-peptide fusion (GPS, HEK-293T) (PSI 1-6); higher = more stable. The following applies: c terminus: a fixed tail appended.
Turning to QKELQDVGQSLRHKEQEVCKLQEQ [I13H], the protein stability index came out at 4.64.

For QKELQDVGQSLRCKEQEVCKLQEQ [I13C], the protein stability index was 3.3.

With QKELQDVGQSLRVKEQEVCKLQEQ [I13V], the protein stability index turned out to be 5.44.

For QKELQDVGQSLRSKEQEVCKLQEQ [I13S], the protein stability index stood at 5.45.

Turning to QKELQDVGQSLRYKEQEVCKLQEQ [I13Y], the protein stability index was found to be 4.95.

Take QKELQDVGQSLRFKEQEVCKLQEQ [I13F]: the protein stability index was 4.85.

As for QKELQDVGQSLRTKEQEVCKLQEQ [I13T], the protein stability index was 5.13.

In the case of QKELQDVGQSLRLKEQEVCKLQEQ [I13L], the protein stability index was found to be 5.57.

Turning to QKELQDVGQSLRKKEQEVCKLQEQ [I13K], the protein stability index worked out at 5.29.

As to QKELQDVGQSLREKEQEVCKLQEQ [I13E], the protein stability index worked out at 5.34.

Take QKELQDVGQSLRDKEQEVCKLQEQ [I13D]: the protein stability index turned out to be 5.72.

For the variant QKELQDVGQSLRWKEQEVCKLQEQ [I13W], the protein stability index came out at 4.57.

On to QKELQDVGQSLRPKEQEVCKLQEQ [I13P], for which the protein stability index was determined as 5.38.

With QKELQDVGQSLRNKEQEVCKLQEQ [I13N], the protein stability index is 5.31.

Take QKELQDVGQSLRMKEQEVCKLQEQ [I13M]: the protein stability index came to 5.64.

Consider QKELQDVGQSLRAKEQEVCKLQEQ [I13A], for which the protein stability index turned out to be 4.69.

In the case of QKELQDVGQSLRRKEQEVCKLQEQ [I13R], the protein stability index was determined as 5.7.

Turning to QKELQDVGQSLRICEQEVCKLQEQ [K14C], the protein stability index worked out at 5.54.

As for QKELQDVGQSLRIPEQEVCKLQEQ [K14P], the protein stability index worked out at 4.73.

Consider QKELQDVGQSLRIDEQEVCKLQEQ [K14D], for which the protein stability index came to 5.63.

Take QKELQDVGQSLRIYEQEVCKLQEQ [K14Y]: the protein stability index was 4.68.

For QKELQDVGQSLRIEEQEVCKLQEQ [K14E], the protein stability index came to 5.49.

For the variant QKELQDVGQSLRIREQEVCKLQEQ [K14R], the protein stability index worked out at 5.19.

With QKELQDVGQSLRIAEQEVCKLQEQ [K14A], the protein stability index was determined as 5.04.

As to QKELQDVGQSLRIIEQEVCKLQEQ [K14I], the protein stability index was determined as 4.43.

Turning to QKELQDVGQSLRINEQEVCKLQEQ [K14N], the protein stability index came to 4.6.

On to QKELQDVGQSLRISEQEVCKLQEQ [K14S], for which the protein stability index was 5.33.

On to QKELQDVGQSLRIQEQEVCKLQEQ [K14Q], for which the protein stability index turned out to be 4.9.

As to QKELQDVGQSLRITEQEVCKLQEQ [K14T], the protein stability index turned out to be 5.75.

With QKELQDVGQSLRIGEQEVCKLQEQ [K14G], the protein stability index was determined as 5.46.

As for QKELQDVGQSLRIHEQEVCKLQEQ [K14H], the protein stability index is 4.78.

Regarding QKELQDVGQSLRIFEQEVCKLQEQ [K14F], the protein stability index came out at 4.38.

For QKELQDVGQSLRIMEQEVCKLQEQ [K14M], the protein stability index turned out to be 4.47.

On to QKELQDVGQSLRIVEQEVCKLQEQ [K14V], for which the protein stability index is 4.94.

As for QKELQDVGQMLRIKEQEVCKLQEQ [S10M], the protein stability index came out at 5.33.

Turning to QKELQDVGQGLRIKEQEVCKLQEQ [S10G], the protein stability index amounted to 4.74.

Regarding QKELQDVGQTLRIKEQEVCKLQEQ [S10T], the protein stability index amounted to 5.48.

For the variant QKELQDVGQHLRIKEQEVCKLQEQ [S10H], the protein stability index was 4.89.

As to QKELQDVGQWLRIKEQEVCKLQEQ [S10W], the protein stability index was 2.66.

Regarding QKELQDVGQKLRIKEQEVCKLQEQ [S10K], the protein stability index was found to be 5.1.

For the variant QKELQDVGQQLRIKEQEVCKLQEQ [S10Q], the protein stability index is 5.31.

Consider QKELQDVGQYLRIKEQEVCKLQEQ [S10Y], for which the protein stability index worked out at 4.32.

On to QKELQDVGQPLRIKEQEVCKLQEQ [S10P], for which the protein stability index stood at 4.37.

QKELQDVGQLLRIKEQEVCKLQEQ [S10L]: the protein stability index is 5.

On to QKELQDVGQVLRIKEQEVCKLQEQ [S10V], for which the protein stability index is 3.9.

In the case of QKELQDVGQFLRIKEQEVCKLQEQ [S10F], the protein stability index came out at 4.91.

In the case of QKELQDVGQDLRIKEQEVCKLQEQ [S10D], the protein stability index stood at 3.74.

In the case of QKELQDVGQELRIKEQEVCKLQEQ [S10E], the protein stability index turned out to be 5.72.

Take QKELQDVGQILRIKEQEVCKLQEQ [S10I]: the protein stability index was determined as 3.83.

For the variant QKELQDVGQSCRIKEQEVCKLQEQ [L11C], the protein stability index stood at 5.09.

For the variant QKELQDVGQSARIKEQEVCKLQEQ [L11A], the protein stability index turned out to be 5.25.

Take QKELQDVGQSIRIKEQEVCKLQEQ [L11I]: the protein stability index worked out at 5.39.

QKELQDVGQSVRIKEQEVCKLQEQ [L11V]: the protein stability index is 5.39.

For the variant QKELQDVGQSPRIKEQEVCKLQEQ [L11P], the protein stability index turned out to be 5.37.

Take QKELQDVGQSSRIKEQEVCKLQEQ [L11S]: the protein stability index was determined as 5.47.

As for QKELQDVGQSHRIKEQEVCKLQEQ [L11H], the protein stability index amounted to 5.36.

For QKELQDVGQSGRIKEQEVCKLQEQ [L11G], the protein stability index worked out at 5.88.

QKELQDVGQSERIKEQEVCKLQEQ [L11E]: the protein stability index worked out at 5.84.

In the case of QKELQDVGQSNRIKEQEVCKLQEQ [L11N], the protein stability index worked out at 5.77.

As to QKELQDVGQSFRIKEQEVCKLQEQ [L11F], the protein stability index was 5.26.

Regarding QKELQDVGQSYRIKEQEVCKLQEQ [L11Y], the protein stability index amounted to 5.21.

As for QKELQDVGQSDRIKEQEVCKLQEQ [L11D], the protein stability index was 5.75.

Turning to QKELQDVGQSKRIKEQEVCKLQEQ [L11K], the protein stability index was found to be 5.12.

With QKELQDVGQSMRIKEQEVCKLQEQ [L11M], the protein stability index is 5.6.

Turning to QKELQDVGQSTRIKEQEVCKLQEQ [L11T], the protein stability index worked out at 5.67.

Regarding QKELQDVGQSWRIKEQEVCKLQEQ [L11W], the protein stability index turned out to be 5.11.

As to QKELQDVGQSQRIKEQEVCKLQEQ [L11Q], the protein stability index was 5.54.

Regarding QKELQDVGQSLQIKEQEVCKLQEQ [R12Q], the protein stability index worked out at 5.75.

On to QKELQDVGQSLHIKEQEVCKLQEQ [R12H], for which the protein stability index came out at 5.41.

Regarding QKELQDVGQSLDIKEQEVCKLQEQ [R12D], the protein stability index is 4.03.

QKELQDVGQSLEIKEQEVCKLQEQ [R12E]: the protein stability index turned out to be 5.71.

Turning to QKELQDVGQSLSIKEQEVCKLQEQ [R12S], the protein stability index was 5.34.

As for QKELQDVGQSLAIKEQEVCKLQEQ [R12A], the protein stability index was found to be 5.34.

Turning to QKELQDVGQSLGIKEQEVCKLQEQ [R12G], the protein stability index came out at 5.6.

With QKELQDVGQSLWIKEQEVCKLQEQ [R12W], the protein stability index amounted to 4.84.

In the case of QKELQDVGQSLPIKEQEVCKLQEQ [R12P], the protein stability index stood at 5.39.

In the case of QKELQDVGQSLYIKEQEVCKLQEQ [R12Y], the protein stability index was 5.28.

For the variant QKELQDVGQSLCIKEQEVCKLQEQ [R12C], the protein stability index came to 4.81.

Consider QKELQDVGQSLTIKEQEVCKLQEQ [R12T], for which the protein stability index was 3.75.

Consider QKELQDVGQSLLIKEQEVCKLQEQ [R12L], for which the protein stability index was found to be 5.33.

As to QKELQDVGQSLFIKEQEVCKLQEQ [R12F], the protein stability index turned out to be 5.02.

QKELQDVGQSLNIKEQEVCKLQEQ [R12N]: the protein stability index came out at 5.19.

As for QKELQDVGQSLIIKEQEVCKLQEQ [R12I], the protein stability index was 5.14.

Regarding QKELQDVGQSLKIKEQEVCKLQEQ [R12K], the protein stability index was determined as 5.55.

QKELQDVGQSLRIKAQEVCKLQEQ [E15A]: the protein stability index worked out at 5.01.

On to QKELQDVGQSLRIKIQEVCKLQEQ [E15I], for which the protein stability index turned out to be 2.8.

In the case of QKELQDVGQSLRIKGQEVCKLQEQ [E15G], the protein stability index came out at 5.1.

As for QKELQDVGQSLRIKLQEVCKLQEQ [E15L], the protein stability index came to 4.15.

As to QKELQDVGQSLRIKMQEVCKLQEQ [E15M], the protein stability index was determined as 4.54.

For the variant QKELQDVGQSLRIKKQEVCKLQEQ [E15K], the protein stability index is 3.7.

For QKELQDVGQSLRIKDQEVCKLQEQ [E15D], the protein stability index was determined as 5.

For the variant QKELQDVGQSLRIKHQEVCKLQEQ [E15H], the protein stability index stood at 4.49.

QKELQDVGQSLRIKFQEVCKLQEQ [E15F]: the protein stability index came out at 3.24.

For the variant QKELQDVGQSLRIKCQEVCKLQEQ [E15C], the protein stability index was 4.11.
